The target in series [1] is Mycobacterium tuberculosis SecA1(S945C) labeled with Cy5 (Mycobacterium tuberculosis strain H37Rv) (UniProt P9WGP5). Nature of the series: MST; Monolith NT.115; unlabeled protein (1 nM to 5 μM) titrated into 25 nM Cy5-labeled protein, mixed in 300 mM KCl, then diluted into low salt buffer (25 mM HEPES-KOH pH 7.5, 30 mM KCl, 2 mM MgCl2, 50 mM arginine); Hill fit, apparent Kd; dimer to monomers.

Series [2] addresses Mycobacterium tuberculosis SecA2(S802C) labeled with Cy5 (Mycobacterium tuberculosis strain H37Rv) (UniProt P9WGP3). Described as above.
In series [3] the target is Mycobacterium tuberculosis SecA1(S945C) labeled with Cy5 (Mycobacterium tuberculosis strain H37Rv) (UniProt P9WGP5). As to the kind of experiment: MST; as the low salt experiment, but at moderate salt concentration (150 mM KCl); dimer to monomers.
For series [4], the target named is Mycobacterium tuberculosis SecA1(S945C) labeled with Cy5, P9WGP5. Nature of the series: fluorescence cross-correlation spectroscopy (FCCS); SecA1-Cy5 and SecA2-AF488 mixed 1:1 in 300 mM KCl, exchanged on NAP5 into 25 mM HEPES-KOH pH 7.5, 30 mM KCl, 2 mM MgCl2, 50 mM arginine; 10 min at room temperature; LSM710 confocal microscope. To be noted: other: fluorescence cross-correlation spectroscopy (FCCS).

Series [5] addresses Mycobacterium tuberculosis SecA1(S945C) labeled with Cy5 (Mycobacterium tuberculosis strain H37Rv) (UniProt P9WGP5). Nature of the series: MST; Monolith NT.115; unlabeled protein (1 nM to 5 μM) titrated into 25 nM Cy5-labeled protein, mixed in 300 mM KCl, then diluted into low salt buffer (25 mM HEPES-KOH pH 7.5, 30 mM KCl, 2 mM MgCl2, 50 mM arginine); Hill fit, apparent Kd; dimer to monomers. The source holds these as a separate data set.

In series [6] the target is T1, Mycobacterium tuberculosis SecA2(S802C) labeled with Cy5 (Mycobacterium tuberculosis strain H37Rv, UniProt P9WGP3 31-808, S802C, Cy5 (Cy5-maleimide label)).
T1 construct: also called SecA2-Cy5; PIP154
T1 sequence: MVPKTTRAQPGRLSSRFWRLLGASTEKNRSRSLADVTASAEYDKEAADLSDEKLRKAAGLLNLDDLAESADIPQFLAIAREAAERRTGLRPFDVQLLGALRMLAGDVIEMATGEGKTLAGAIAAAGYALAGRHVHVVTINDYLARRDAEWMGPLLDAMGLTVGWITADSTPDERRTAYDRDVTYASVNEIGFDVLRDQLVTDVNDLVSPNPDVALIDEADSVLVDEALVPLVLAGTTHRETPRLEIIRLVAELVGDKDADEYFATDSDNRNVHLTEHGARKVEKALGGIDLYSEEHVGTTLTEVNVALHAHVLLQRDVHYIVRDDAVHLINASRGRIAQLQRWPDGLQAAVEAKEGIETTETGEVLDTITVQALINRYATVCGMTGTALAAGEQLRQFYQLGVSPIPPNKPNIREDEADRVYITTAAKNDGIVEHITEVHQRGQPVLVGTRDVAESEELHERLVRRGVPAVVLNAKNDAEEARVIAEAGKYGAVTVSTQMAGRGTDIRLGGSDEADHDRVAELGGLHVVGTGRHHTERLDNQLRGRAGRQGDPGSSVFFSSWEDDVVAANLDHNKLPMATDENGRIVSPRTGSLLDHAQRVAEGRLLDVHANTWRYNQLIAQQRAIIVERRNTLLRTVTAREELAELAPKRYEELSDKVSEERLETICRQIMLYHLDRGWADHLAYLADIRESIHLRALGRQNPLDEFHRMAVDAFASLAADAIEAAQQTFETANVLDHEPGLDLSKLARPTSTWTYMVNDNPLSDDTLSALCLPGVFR
As to the kind of experiment: MST; as the low salt experiment, but at moderate salt concentration (150 mM KCl); dimer to monomers. The following applies: both partners purified.

Series [7] deals with T1, Mycobacterium tuberculosis SecA2(S802C) …. As to the kind of experiment: MST; Monolith NT.115; unlabeled protein (1 nM to 5 μM) titrated into 25 nM Cy5-labeled protein, mixed in 300 mM KCl, then diluted into low salt buffer (25 mM HEPES-KOH pH 7.5, 30 mM KCl, 2 mM MgCl2, 50 mM arginine); Hill fit, apparent Kd; dimer to monomers. To be noted: both partners purified.

“Mycobacterium tuberculosis SecA1 (unlabeled) (from UniProt P9WGP5 1-949) (natural protein)”: the Kd in series [1] worked out at 65 nM; in series [2] it was 438 nM; in series [3], 298 nM.

B1: Mycobacterium tuberculosis SecA2(S802C) labeled with AlexaFluor 488 (protein)
chain: MVPKTTRAQPGRLSSRFWRLLGASTEKNRSRSLADVTASAEYDKEAADLSDEKLRKAAGLLNLDDLAESADIPQFLAIAREAAERRTGLRPFDVQLLGALRMLAGDVIEMATGEGKTLAGAIAAAGYALAGRHVHVVTINDYLARRDAEWMGPLLDAMGLTVGWITADSTPDERRTAYDRDVTYASVNEIGFDVLRDQLVTDVNDLVSPNPDVALIDEADSVLVDEALVPLVLAGTTHRETPRLEIIRLVAELVGDKDADEYFATDSDNRNVHLTEHGARKVEKALGGIDLYSEEHVGTTLTEVNVALHAHVLLQRDVHYIVRDDAVHLINASRGRIAQLQRWPDGLQAAVEAKEGIETTETGEVLDTITVQALINRYATVCGMTGTALAAGEQLRQFYQLGVSPIPPNKPNIREDEADRVYITTAAKNDGIVEHITEVHQRGQPVLVGTRDVAESEELHERLVRRGVPAVVLNAKNDAEEARVIAEAGKYGAVTVSTQMAGRGTDIRLGGSDEADHDRVAELGGLHVVGTGRHHTERLDNQLRGRAGRQGDPGSSVFFSSWEDDVVAANLDHNKLPMATDENGRIVSPRTGSLLDHAQRVAEGRLLDVHANTWRYNQLIAQQRAIIVERRNTLLRTVTAREELAELAPKRYEELSDKVSEERLETICRQIMLYHLDRGWADHLAYLADIRESIHLRALGRQNPLDEFHRMAVDAFASLAADAIEAAQQTFETANVLDHEPGLDLSKLARPTSTWTYMVNDNPLSDDTLSALCLPGVFR
For B1, the “percent of all proteins co-migrating as heterodimers” value in series [4] was 12% of all proteins co-migrated as heterodimers.

B2: Mycobacterium tuberculosis SecA2 (unlabeled) (natural protein)
chain: MVPKTTRAQPGRLSSRFWRLLGASTEKNRSRSLADVTASAEYDKEAADLSDEKLRKAAGLLNLDDLAESADIPQFLAIAREAAERRTGLRPFDVQLLGALRMLAGDVIEMATGEGKTLAGAIAAAGYALAGRHVHVVTINDYLARRDAEWMGPLLDAMGLTVGWITADSTPDERRTAYDRDVTYASVNEIGFDVLRDQLVTDVNDLVSPNPDVALIDEADSVLVDEALVPLVLAGTTHRETPRLEIIRLVAELVGDKDADEYFATDSDNRNVHLTEHGARKVEKALGGIDLYSEEHVGTTLTEVNVALHAHVLLQRDVHYIVRDDAVHLINASRGRIAQLQRWPDGLQAAVEAKEGIETTETGEVLDTITVQALINRYATVCGMTGTALAAGEQLRQFYQLGVSPIPPNKPNIREDEADRVYITTAAKNDGIVEHITEVHQRGQPVLVGTRDVAESEELHERLVRRGVPAVVLNAKNDAEEARVIAEAGKYGAVTVSTQMAGRGTDIRLGGSDEADHDRVAELGGLHVVGTGRHHTERLDNQLRGRAGRQGDPGSSVFFSSWEDDVVAANLDHNKLPMATDENGRIVSPRTGSLLDHAQRVAEGRLLDVHANTWRYNQLIAQQRAIIVERRNTLLRTVTAREELAELAPKRYEELSDKVSEERLETICRQIMLYHLDRGWADHLAYLADIRESIHLRALGRQNPLDEFHRMAVDAFASLAADAIEAAQQTFETANVLDHEPGLDLSKLARPTSTWTYMVNDNPLSDDTLSALSLPGVFR
notes: No tag; molecular mass 85 kDa on SDS-PAGE; also called PIP152
As to B2, the Kd came to 378 nM in series [5], 618 ± 36.5 nM in series [6] and 161 ± 6.2 nM in series [7].

Source of the values: article PMC4457860, “In Vitro Interaction of the Housekeeping SecA1 with the Accessory SecA2 Protein of Mycobacterium tuberculosis” (PLoS ONE, 2015).
